The values that follow come from publication PMC314469, “Protein Interaction Networks by Proteome Peptide Scanning” (PLoS Biology, 2004).

What all share (assay): SPOT array
Assay [1] has as its target T1, Boi1 SH3 (BOI1_YEAST), P38041.
T1 chain: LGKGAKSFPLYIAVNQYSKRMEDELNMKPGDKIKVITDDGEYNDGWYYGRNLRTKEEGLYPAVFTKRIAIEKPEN

The target of assay [2] is T2, Boi2 SH3 (BOI2_YEAST), P39969.
T2 chain: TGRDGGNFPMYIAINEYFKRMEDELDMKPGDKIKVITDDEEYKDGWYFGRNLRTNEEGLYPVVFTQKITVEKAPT

The target in assay [3] is T3, Myo5 SH3 (MYO5_YEAST), Q04439.
T3 chain: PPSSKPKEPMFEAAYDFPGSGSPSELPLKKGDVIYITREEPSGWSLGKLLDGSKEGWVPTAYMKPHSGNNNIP

For assay [4], the target named is T4, Rvs167 SH3 (RV167_YEAST), P39743.
T4 chain: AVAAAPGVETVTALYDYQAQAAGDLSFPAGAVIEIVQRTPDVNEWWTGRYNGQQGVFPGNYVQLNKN

Assay [5] has as its target Sho1 SH3 (SHO1_YEAST), P40073.
Assay [6] deals with T5, Yfr024 SH3 (LSB3_YEAST), P43603.
T5 chain: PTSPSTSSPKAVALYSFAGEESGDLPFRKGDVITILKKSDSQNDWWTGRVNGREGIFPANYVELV

The target of assay [7] is T6, Yhr016c SH3 (YSC84_YEAST), P32793.
T6 chain: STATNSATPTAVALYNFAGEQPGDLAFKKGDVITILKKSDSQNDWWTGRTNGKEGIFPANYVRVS

Chain of Sho1 SH3 (SHO1_YEAST), P40073 (P40073 295-366): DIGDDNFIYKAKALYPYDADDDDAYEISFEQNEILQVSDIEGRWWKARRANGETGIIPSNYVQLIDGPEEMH

Regarding TLKKKKTPKKPIAA [YKR084C 77-90], the normalised SPOT signal, Boehringer light units (BLU); mean over the file's lines of this peptide turned out to be 1510 in assay [1]; 13 in assay [2]; 535 in assay [3]; 30.6 in assay [4]; 64.1 in assay [5]; 304 in assay [6]. In assay [7], the normalised SPOT signal, Boehringer light units (BLU); mean over the file's lines of this peptide was 31.6.
Turning to TNSVKATPVPPTLA [YLR337C 365-378], the normalised SPOT signal, Boehringer light units (BLU); mean over the file's lines of this peptide in assay [1] was determined as 53.6; in assay [2] it was 2.7; in assay [3], 168; in assay [4], 34.8; in assay [5], 50.1; in assay [6], 7.5. Moreover, the normalised SPOT signal, Boehringer light units (BLU); mean over the file's lines of this peptide in assay [7] is 23.7.
Turning to TKAKKEKPKPPKPI [YMR044W 280-293], the normalised SPOT signal, Boehringer light units (BLU); mean over the file's lines of this peptide in assay [1] is 546; in assay [2], 11.1; in assay [3], 158; in assay [4] it was 32.6; in assay [5], 56.3; in assay [6], 95.1. Further, the normalised SPOT signal, Boehringer light units (BLU); mean over the file's lines of this peptide in assay [7] amounted to 21.2.
Regarding TKTDKSYPMSPVDA [YOR208W 444-457], the normalised SPOT signal, Boehringer light units (BLU); mean over the file's lines of this peptide in assay [1] came out at 52.5; in assay [2], 19.3; in assay [3], 150; in assay [4], 105; in assay [5], 36.1; in assay [6] it was 50.1. For the same molecule, in assay [7], the normalised SPOT signal, Boehringer light units (BLU); mean over the file's lines of this peptide was found to be 15.5.
Take TLNDRQIPLSPDQM [YAL026C 387-400]: the normalised SPOT signal, Boehringer light units (BLU); mean over the file's lines of this peptide amounted to 60.6 in assay [1]; 27.5 in assay [2]; 73.6 in assay [3]; 120 in assay [4]; 30.3 in assay [5]; 60.2 in assay [6]. In assay [7], this molecule came in with a normalised SPOT signal, Boehringer light units (BLU); mean over the file's lines of this peptide of 42.6.
As to TMKNKPKPTPPSPP [YPR171W 298-311], the normalised SPOT signal, Boehringer light units (BLU); mean over the file's lines of this peptide was 292 in assay [1]; 52.3 in assay [2]; 910 in assay [3]; 48 in assay [4]; 47.8 in assay [5]; 588 in assay [6]. Further, in assay [7], the normalised SPOT signal, Boehringer light units (BLU); mean over the file's lines of this peptide was determined as 217.
Take TLDEKESPSVPPTV [YKL148C 624-637]: the normalised SPOT signal, Boehringer light units (BLU); mean over the file's lines of this peptide worked out at 58.2 in assay [1]; 15.4 in assay [2]; 212 in assay [3]; 85.7 in assay [4]; 32.4 in assay [5]; 27 in assay [6]. Moreover, in assay [7], the normalised SPOT signal, Boehringer light units (BLU); mean over the file's lines of this peptide turned out to be 57.9.
In the case of TNGPRYSPQNPRPF [YMR124W 350-363], the normalised SPOT signal, Boehringer light units (BLU); mean over the file's lines of this peptide in assay [1] was 30.1; in assay [2], 15.5; in assay [3], 158; in assay [4], 85.3; in assay [5], 7.4; in assay [6], 470. In addition, the normalised SPOT signal, Boehringer light units (BLU); mean over the file's lines of this peptide in assay [7] is 43.5.
TPQSRFPPYSPLLP [YDR103W 267-280]: the normalised SPOT signal, Boehringer light units (BLU); mean over the file's lines of this peptide in assay [1] was determined as 57.1; in assay [2], 7.5; in assay [3], 443; in assay [4], 28; in assay [5], 34.7; in assay [6] it was 33.7. In assay [7], this molecule displayed a normalised SPOT signal, Boehringer light units (BLU); mean over the file's lines of this peptide of 34.2.
In the case of TKRQRGEPSEPQQD [YGR241C 267-280], the normalised SPOT signal, Boehringer light units (BLU); mean over the file's lines of this peptide in assay [1] is 2030; in assay [2], 21.1; in assay [3], 27.7; in assay [4], 189; in assay [5] it was 44.1; in assay [6], 157. In assay [7], this molecule registered a normalised SPOT signal, Boehringer light units (BLU); mean over the file's lines of this peptide of 43.3.
Regarding TKKRKLGPKAPNPL [YOR004W 192-205], the normalised SPOT signal, Boehringer light units (BLU); mean over the file's lines of this peptide is 495 in assay [1]; 37.3 in assay [2]; 694 in assay [3]; 156 in assay [4]; 25 in assay [5]; 321 in assay [6]. In addition, the normalised SPOT signal, Boehringer light units (BLU); mean over the file's lines of this peptide in assay [7] is 12.6.
Take TKFTKPKPKQPVLP [YLR439W 17-30]: the normalised SPOT signal, Boehringer light units (BLU); mean over the file's lines of this peptide in assay [1] was 295; in assay [2], 6.1; in assay [3], 445; in assay [4], 23.4; in assay [5], 57.7; in assay [6], 0.2. Also, the normalised SPOT signal, Boehringer light units (BLU); mean over the file's lines of this peptide in assay [7] came out at 2.8.
Take TINSRFYPPIPISE [YMR154C 67-80]: the normalised SPOT signal, Boehringer light units (BLU); mean over the file's lines of this peptide in assay [1] worked out at 95.6; in assay [2] it was 6.9; in assay [3], 76.4; in assay [4], 130; in assay [5] it was 86.9; in assay [6], 304. Also, the normalised SPOT signal, Boehringer light units (BLU); mean over the file's lines of this peptide in assay [7] worked out at 82.1.
Consider TLDEKNLPRLPTPF [YKR055W 36-49], for which the normalised SPOT signal, Boehringer light units (BLU); mean over the file's lines of this peptide in assay [1] came to 0; in assay [2], 0; in assay [3] it was 205; in assay [4] it was 64.3; in assay [5], 28100; in assay [6], 92.4. The molecule also yielded a normalised SPOT signal, Boehringer light units (BLU); mean over the file's lines of this peptide in assay [7] of 64.8.
